Assay [1] has as its target T1, MLO-Y4 cell surface proteins (Mus musculus, UniProt B1AVY7).
T1 construct: endogenous in cells; host or cells: MLO-Y4
T1 sequence (B1AVY7 1-1312): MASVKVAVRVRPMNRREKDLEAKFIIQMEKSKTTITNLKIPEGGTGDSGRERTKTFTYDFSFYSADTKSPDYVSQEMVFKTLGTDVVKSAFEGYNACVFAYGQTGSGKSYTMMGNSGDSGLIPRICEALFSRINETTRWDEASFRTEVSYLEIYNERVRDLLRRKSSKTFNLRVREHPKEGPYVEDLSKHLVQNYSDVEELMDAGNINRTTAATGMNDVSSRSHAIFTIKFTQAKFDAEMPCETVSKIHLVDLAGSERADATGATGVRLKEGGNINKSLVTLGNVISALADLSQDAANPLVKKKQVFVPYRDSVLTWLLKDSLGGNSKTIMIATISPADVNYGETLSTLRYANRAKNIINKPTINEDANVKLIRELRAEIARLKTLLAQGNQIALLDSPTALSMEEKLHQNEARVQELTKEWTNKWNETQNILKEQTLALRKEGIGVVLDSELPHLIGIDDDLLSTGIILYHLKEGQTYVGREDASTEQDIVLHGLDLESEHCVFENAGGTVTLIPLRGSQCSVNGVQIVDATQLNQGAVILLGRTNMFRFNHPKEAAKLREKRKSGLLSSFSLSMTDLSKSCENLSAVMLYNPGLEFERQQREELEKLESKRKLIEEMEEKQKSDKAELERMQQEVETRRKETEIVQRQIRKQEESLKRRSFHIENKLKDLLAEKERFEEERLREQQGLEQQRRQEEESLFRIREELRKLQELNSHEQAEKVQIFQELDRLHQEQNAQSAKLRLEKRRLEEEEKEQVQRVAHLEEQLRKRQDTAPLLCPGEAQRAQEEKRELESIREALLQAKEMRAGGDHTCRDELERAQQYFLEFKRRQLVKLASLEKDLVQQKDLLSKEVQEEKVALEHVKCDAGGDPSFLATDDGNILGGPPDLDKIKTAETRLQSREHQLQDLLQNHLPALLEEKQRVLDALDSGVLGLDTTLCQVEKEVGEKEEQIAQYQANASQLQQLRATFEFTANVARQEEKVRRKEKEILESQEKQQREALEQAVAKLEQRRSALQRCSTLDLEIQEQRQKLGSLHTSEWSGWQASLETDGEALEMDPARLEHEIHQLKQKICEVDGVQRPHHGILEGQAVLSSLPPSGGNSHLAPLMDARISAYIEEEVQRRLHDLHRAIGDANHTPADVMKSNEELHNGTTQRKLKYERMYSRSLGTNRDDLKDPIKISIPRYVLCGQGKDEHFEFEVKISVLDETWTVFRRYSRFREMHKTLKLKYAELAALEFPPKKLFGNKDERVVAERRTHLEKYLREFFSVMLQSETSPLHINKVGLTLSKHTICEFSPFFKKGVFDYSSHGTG
The assay is described as follows: Crosslinking/co-immunoprecipitation/mass spectrometry (TMT quantitative proteomics) to identify irisin receptors. The assay is classed as binding. Conditions: co-precipitated protein Kif16b (KI16B_MOUSE). How it is done: (§1) MLO-Y4 cells were seeded on 30×150 mm type-I collagen coated dishes as described in cell culture experiment. At 60% cell density, medium was switched to FreeStyle™ 293 Expression medium. After 4 hours incubation, the cells were chilled on ice for 10 minutes, followed by treatment of 10 nM his-tag irisin or his-tag adipsin for 20 minutes. The cells were then incubated with 1.5 mM DTSSP for 30 minutes on ice to do cross-linking, after washing with 15 ml cold PBS twice. The cross-linking was quenched by addition of a final concentration of 20 mM Tris-pH 7.5. The cells were then harvested and homogenized in 1 ml RIPA buffer containing proteaseinhibitor cocktailand phosphatase-inhibitor cocktail. Whole-cell lysates were homogenized by 10 times passages through a 22G needle fitted to a 3 ml syringe. Homogenized samples were rotated gently in cold room for 20 minutes followed by 15,000×g centrifugation for 10 minutes. After addition of a final concentration of 10 mM imidazole, supernatants were incubated with 100 μl Ni-NTA agarose for 1 hour. After centrifugation at 500×g for 1 minute, the supernatants were aspirated and 1 ml cold RIPA buffer containing 10 mM imidazole were added to the agarose. After 10 minutes rotation in cold room, the supernatants were aspirated and 1 ml cold RIPA buffer containing 30 mM imidazole were added to the agarose. After repeating the washing 3 times, 0.8 ml RIPA buffer containing 250 mM imidazole was added and the agarose was gently rotated in a cold room for 20 minutes. After centrifugation at 1000×g for 2 minutes, the supernatants were transferred to 1.5 ml tube and incubated with 100 μl 0.2% sodium deoxycholate and 100 μl 10% trichloroacetic acid in ice for 1 hour. After centrifugation at 12,000×g for 10 minutes at 4° C., the supernatants were removed and 1 ml cold acetone was added to the pellets followed by vortexing for 10 seconds. After one more washing with cold acetone, the pellets were dried at 37° C., and 39 μl PBS and 13 μl 4×NuPAGE LDS were added to the pellets with a final concentration of 5 mM DTT. Solubilized proteins were incubated at 65° C. for 20 minutes followed by incubation with a final concentration of 14 mM iodoacetamide for 45 minutes in the dark. 38 μl samples were loaded to 4-12% gradient SDS-PAGE for separation followed by Coomassie Blue staining. The gels were submitted to quantitative proteomics.
(§2) For in-gel digestions, gels were stained with Coomassie Blue and were excised into 8 equal segments for control and irisin lanes. Gel pieces were destained and dehydrated with 100% acetonitrile, vacuumed dried, and digested in 25 mM HEPES (pH 8.5) with 500 ng sequencing grade trypsin (Promega) and incubated for an overnight at 37° C. (Shevchenko et al. (1996) Anal. Chem. 68:850-858). Digests were treated with 1% formic acid and purified using C18 Stage-Tips as previously described (Rappsilber et al. (2007) Nat. Protoc. 2:1896-1906). Peptides were eluted with 70% acetonitrile and 1% formic acid, then dried using a speedvac. Isobaric labeling of digested peptides was accomplished using 6-plex tandem mass tag (TMT) reagents (Thermo Fisher Scientific, Rockford, Ill.). Reagents, 5.0 mg, were dissolved in 252 μl acetonitrile (ACN) and 5 μl of the solution was added to the digested peptides dissolved in 25 μl of 200 mM HEPES, pH 8.5. After 1 hour at room temperature, the reaction was quenched by adding 1 μl of 5% hydroxylamine. Labeled peptides were combined and acidified prior to C18 Stage-Tips desalting.
(§3) All LC-MS/MS experiments were performed on an Orbitrap Fusion™ Lumos mass spectrometer (Thermo Fisher Scientific, San Jose, Calif., USA) coupled with a Proxeon EASY-nLC™ 1200 LC pump (Thermo Fisher Scientific). Peptides were separated on a 100 μm inner diameter microcapillary column packed with 35 cm of Accucore™ C18 resin (1.8 μm, 100 Å, Thermo Fisher Scientific). […]

Assay [2] has as its target T2, MLO-Y4 cell surface proteins (Mus musculus, UniProt O70404).
T2 construct: endogenous in cells; host or cells: MLO-Y4
T2 sequence (O70404 1-101): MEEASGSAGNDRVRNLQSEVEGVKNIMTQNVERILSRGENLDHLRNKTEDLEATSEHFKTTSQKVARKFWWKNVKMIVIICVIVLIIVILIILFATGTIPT
The description is as above. The assay is classed as binding. Conditions: co-precipitated protein Vamp8 (VAMP8_MOUSE). The procedure:
as §1, §2, §3

Regarding adipsin, the TMT signal-to-noise ratio turned out to be 1117.61 in assay [1] and 300.176 in assay [2].

The values above are taken from US20210063414A1, “METHODS FOR PREVENTING AND/OR TREATING BONE LOSS CONDITIONS BY MODULATING IRISIN” (Dana-Farber Cancer Institute, Inc., priority 2018, published 2021).
